Measurements as given in IntAct's records for PubMed 15173383.

B1: DNA polymerase delta catalytic subunit (Saccharomyces cerevisiae), P15436 (parent)
chain: MSEKRSLPMVDVKIDDEDTPQLEKKIKRQSIDHGVGSEPVSTIEIIPSDSFRKYNSQGFKAKDTDLMGTQLESTFEQELSQMEHDMADQEEHDLSSFERKKLPTDFDPSLYDISFQQIDAEQSVLNGIKDENTSTVVRFFGVTSEGHSVLCNVTGFKNYLYVPAPNSSDANDQEQINKFVHYLNETFDHAIDSIEVVSKQSIWGYSGDTKLPFWKIYVTYPHMVNKLRTAFERGHLSFNSWFSNGTTTYDNIAYTLRLMVDCGIVGMSWITLPKGKYSMIEPNNRVSSCQLEVSINYRNLIAHPAEGDWSHTAPLRIMSFDIECAGRIGVFPEPEYDPVIQIANVVSIAGAKKPFIRNVFTLNTCSPITGSMIFSHATEEEMLSNWRNFIIKVDPDVIIGYNTTNFDIPYLLNRAKALKVNDFPYFGRLKTVKQEIKESVFSSKAYGTRETKNVNIDGRLQLDLLQFIQREYKLRSYTLNAVSAHFLGEQKEDVHYSIISDLQNGDSETRRRLAVYCLKDAYLPLRLMEKLMALVNYTEMARVTGVPFSYLLARGQQIKVVSQLFRKCLEIDTVIPNMQSQASDDQYEGATVIEPIRGYYDVPIATLDFNSLYPSIMMAHNLCYTTLCNKATVERLNLKIDEDYVITPNGDYFVTTKRRRGILPIILDELISARKRAKKDLRDEKDPFKRDVLNGRQLALKISANSVYGFTGATVGKLPCLAISSSVTAYGRTMILKTKTAVQEKYCIKNGYKHDAVVVYGDTDSVMVKFGTTDLKEAMDLGTEAAKYVSTLFKHPINLEFEKAYFPYLLINKKRYAGLFWTNPDKFDKLDQKGLASVRRDSCSLVSIVMNKVLKKILIERNVDGALAFVRETINDILHNRVDISKLIISKTLAPNYTNPQPHAVLAERMKRREGVGPNVGDRVDYVIIGGNDKLYNRAEDPLFVLENNIQVDSRYYLTNQLQNPIISIVAPIIGDKQANGMFVVKSIKINTGSQKGGLMSFIKKVEACKSCKGPLRKGEGPLCSNCLARSGELYIKALYDVRDLEEKYSRLWTQCQRCAGNLHSEVLCSNKNCDIFYMRVKVKKELQEKVEQLSKW
partner: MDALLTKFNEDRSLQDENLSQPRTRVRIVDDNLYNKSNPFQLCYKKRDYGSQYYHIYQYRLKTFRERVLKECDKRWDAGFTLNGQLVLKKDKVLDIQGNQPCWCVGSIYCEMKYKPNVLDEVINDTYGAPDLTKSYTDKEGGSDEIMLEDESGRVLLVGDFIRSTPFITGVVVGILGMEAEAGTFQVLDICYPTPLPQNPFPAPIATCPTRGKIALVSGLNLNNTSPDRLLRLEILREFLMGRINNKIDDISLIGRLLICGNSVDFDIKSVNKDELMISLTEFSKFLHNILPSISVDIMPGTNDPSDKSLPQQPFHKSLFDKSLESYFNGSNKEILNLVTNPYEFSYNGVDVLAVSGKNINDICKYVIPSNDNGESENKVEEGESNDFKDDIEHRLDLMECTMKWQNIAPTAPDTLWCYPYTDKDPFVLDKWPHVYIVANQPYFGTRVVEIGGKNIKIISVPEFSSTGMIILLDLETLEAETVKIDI
B2: DNA polymerase delta small subunit (Saccharomyces cerevisiae), P46957 (parent)
chain: B1 partner
partner: B1 chain
B3: DNA polymerase delta catalytic subunit (Schizosaccharomyces pombe (strain ATCC 38366 / 972)), P30316 (parent)
chain: MTDRSSNEGVVLNKENYPFPRRNGSIHGEITDVKRRRLSERNGYGDKKGSSSKEKTSSFEDELAEYASQLDQDEIKSSKDQQWQRPALPAINPEKDDIYFQQIDSEEFTEGSVPSIRLFGVTDNGNSILVHVVGFLPYFYVKAPVGFRPEMLERFTQDLDATCNGGVIDHCIIEMKENLYGFQGNEKSPFIKIFTTNPRILSRARNVFERGEFNFEELFPVGVGVTTFESNTQYLLRFMIDCDVVGMNWIHLPASKYQFRYQNRVSNCQIEAWINYKDLISLPAEGQWSKMAPLRIMSFDIECAGRKGVFPDPSIDPVIQIASIVTQYGDSTPFVRNVFCVDTCSQIVGTQVYEFQNQAEMLSSWSKFVRDVDPDVLIGYNICNFDIPYLLDRAKSLRIHNFPLLGRIHNFFSVAKETTFSSKAYGTRESKTTSIPGRLQLDMLQVMQRDFKLRSYSLNAVCSQFLGEQKEDVHYSIITDLQNGTADSRRRLAIYCLKDAYLPQRLMDKLMCFVNYTEMARVTGVPFNFLLARGQQIKVISQLFRKALQHDLVVPNIRVNGTDEQYEGATVIEPIKGYYDTPIATLDFSSLYPSIMQAHNLCYTTLLDSNTAELLKLKQDVDYSVTPNGDYFVKPHVRKGLLPIILADLLNARKKAKADLKKETDPFKKAVLDGRQLALKVSANSVYGFTGATNGRLPCLAISSSVTSYGRQMIEKTKDVVEKRYRIENGYSHDAVVIYGDTDSVMVKFGVKTLPEAMKLGEEAANYVSDQFPNPIKLEFEKVYFPYLLISKKRYAGLFWTRTDTYDKMDSKGIETVRRDNCPLVSYVIDTALRKMLIDQDVEGAQLFTKKVISDLLQNKIDMSQLVITKALSKTDYAAKMAHVELAERMRKRDAGSAPAIGDRVAYVIIKGAQGDQFYMRSEDPIYVLENNIPIDAKYYLENQLSKPLLRIFEPILGEKASSLLHGDHTRTISMAAPSVGGIMKFAVKVETCLGCKAPIKKGKTALCENCLNRSAELYQRQVAQVNDLEVRFARLWTQCQRCQGSMHQDVICTSRDCPIFYMRIAEHKKLQQSVDLLKRFDEMSW
partner: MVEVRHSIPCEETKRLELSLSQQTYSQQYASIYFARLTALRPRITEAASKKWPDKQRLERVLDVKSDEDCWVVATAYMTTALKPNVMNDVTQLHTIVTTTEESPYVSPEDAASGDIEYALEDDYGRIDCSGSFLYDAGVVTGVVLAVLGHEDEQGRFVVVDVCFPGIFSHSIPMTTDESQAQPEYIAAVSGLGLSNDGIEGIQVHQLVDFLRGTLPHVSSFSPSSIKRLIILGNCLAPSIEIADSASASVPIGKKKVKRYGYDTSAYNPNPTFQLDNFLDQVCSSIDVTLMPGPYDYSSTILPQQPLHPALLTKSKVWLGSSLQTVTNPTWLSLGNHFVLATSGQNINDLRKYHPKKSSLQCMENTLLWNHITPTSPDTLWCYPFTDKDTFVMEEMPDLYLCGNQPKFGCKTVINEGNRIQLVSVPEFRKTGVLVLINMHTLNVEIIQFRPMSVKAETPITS

Variants of: B1
Settings: with dpod2_yeast POL31, P46957

| Variant | effect of a mutation on the interaction |
| --- | --- |
| E1047A | decreasing interaction |
| C1056A | decreasing interaction |
| Q1057A | decreasing interaction |
| R1058A | decreasing interaction |
| C1059A | decreasing interaction |
| H1064A | decreasing interaction |
| C1069A | decreasing interaction |
| C1074A | decreasing interaction |

Variants of: B2
Settings: with dpod_yeast POL3, P15436

| Variant | effect of a mutation on the interaction |
| --- | --- |
| MDALLTKFNEDRSLQDENLSQPRTRVRIVDDNLYNKSNPFQLCYKKRDYGSQYYHIYQYRLKTFRERVLKECDKRWDAGFTLNGQLVLKKDKVLDIQGNQPCWCVGSIYCEMKYKPNVLDEVINDTYGAPDLTKSYTDKEGGSDEIMLEDESGRVLLVGDFIRSTPFITGVVVGILGMEAEAGTFQVLDICYPTPLPQNPFPAPIATCPTRGKIALVSGLNLNNTSPDRLLRLEILREFLMGRINNKIDDISLIGRLLICGNSVDFDIKSVNKDELMISLTEFSKFLHNILPSISVDIMPGTNDPSDKSLPQQPFHKSLFDKSLESYFNGSNKEILNLVTNPYEFSYNGVDVLAVSGENINDICKYVIPSNDNGESENKVEEGESNDFKDDIEHRLDLMECTMKWQNIAPTAPDTLWCYPYTDKDPFVLDKWPHVYIVANQPYFGTRVVEIGGKNIKIISVPEFSSTGMIILLDLETLEAETVKIDI [K358E] | increasing interaction |

Variants of: B3
Settings: with dpod2_schpo cdc1, P87324

| Variant | effect of a mutation on the interaction |
| --- | --- |
| C1040A | decreasing interaction |
| C1043A | decreasing interaction |
| C1053A | decreasing interaction |
| C1058A | decreasing interaction |
| C1058S | decreasing interaction |
